Experimental data from patent US20170327535A1.

Target: aTNFa-Fab (Fab fragment of Infliximab, Remicade)
Assay: dynamic binding capacity on a 1 mL-gel column, 1 mg/mL aTNFa-Fab at […], 55% breakthrough

55% DBC: 48.6 mg/mL/gel
B1: LB5t-Wild.4d (four connected B5 domains of PpL312), immobilized on agarose carrier (protein)
chain: KEETPETPETDSEEQVTIKENIYFEDGTVQTATFKGTFAEATAEAYRYADLLSKEHGKYTADLEDGGYTINIRFAGKEKTPEEPKEQVTIKENIYFEDGTVQTATFKGTFAEATAEAYRYADLLSKEHGKYTADLEDGGYTINIRFAGKEKTPEEPKEQVTIKENIYFEDGTVQTATFKGTFAEATAEAYRYADLLSKEHGKYTADLEDGGYTINIRFAGKEKTPEEPKEQVTIKENIYFEDGTVQTATFKGTFAEATAEAYRYADLLSKEHGKYTADLEDGGYTINIRFAGKKVDEKPEEC
modifications: coupled to maleimide-activated (EMCH) NHS Activated Sepharose 4 Fast Flow through a reactive amino acid residue
